Reference: patent US10159707B2, “Treatment of cancers with immunostimulatory HIV Tat derivative polypeptides” (PIN Pharma, Inc., priority 2013, dated 2018)
Entries after “also recorded” stand apart in the source; their conditions may differ.

Tests used:
4T1 cells = test: Repeated dosing of Nani-P2 and cyclophosphamide in 4T1 tumor-bearing mice; assay type: in vivo, mouse
Procedure: Four groups of 10 BALB/c mice were implanted with 1×10^4 4 T1 cells SC into the mammary fat pad. Treatment was initiated when tumor diameters reached 4-5 mm, on day 10. Control mice were injected IV with PBS at 3 days intervals, while alternating treatment mice received 3 doses of drug every 3 days in rotating 10 day cycles. Tumor burden (tumor size mm^3) was calculated using a standard formula. CY (cyclophosphamide alone) mice were injected IP weekly with 80 mg/kg per mouse beginning on day 10. Cy/Nani-P2 (cyclophosphamide first followed by Nani-P2) mice were first injected IP with cyclophosphamide (80 mg/kg) at 3 days intervals for three doses starting at day 10 and then injected IV with Nani-P2 (40 ng) at 3 days intervals for three doses in rotation. The cycle of 3 doses of CY followed by 3 doses of Nani-P2 was repeated until day 50. Nani-P2/CY (Nani-P2 first followed by cyclophosphamide) mice were first injected IV with Nani-P2 (40 ng) at 3 day intervals for 3 doses starting on day 10 and then injected i.p. with cyclophosphamide at 3 day intervals in rotation. The cycle of 3 doses of Nani-P2 followed by 3 doses of CY was repeated until day 50.

[1] = Toxicity observed in treated mice; assay type: in vivo, mouse; details: SC or IV 40 ng, multiple trials, multiple dosing schedules
PD-L1 = test: IHC staining of primary 4T1 breast tumors for PD-L1; assay type: in vivo, mouse; details: therapy initiated 7 days after inoculation, resected Day 29/30
Procedure: (§1) Female BALB/c mice were inoculated in the mammary fat pad with syngeneic and highly metastatic 4T1 breast cancer cells to model Stage IV human breast cancer. Nani-P2 immunotherapy was initiated 7 days after tumor cell inoculation. Tumors were assessed by caliper measurements throughout the study and resected on Day 29/30. Immunohistochemical staining (IHC) for PD-L1 and CD8 was performed on formalin-fixed, paraffin embedded specimens of primary 4T1 tumors.

Human monocytes = test: CD86 expression of human monocytes cultured with Tat derivative; assay type: cell-based; details: cultured 24-48 hours; fluorescent-labeled CD86; compared with ISS (TLR) or LPS
Procedure: Human monocytes were cultured for 24-48 hours with a Tat derivative (Nani-P2), an immunostimulatory sequence (ISS) of a toll-like receptor (TLR) (FIG. 1), or lipopolysaccharide (LPS) (FIG. 2) and the cells were then washed and stained with fluorescent-labeled CD86.

SM1 breast cancer cells = test: SM1 mammary carcinoma model, primary tumor growth; assay type: in vivo, mouse
Procedure: BALB/c mice were injected (SC) with 1×10^4 4 T1, 1×10^5 TS/A or 2×10^5 SM1 cells, respectively, in the left mammary pad on day 0. […] The control group received PBS injection. […] Tumor burden (tumor volume) was measured and recorded three times weekly. Animals were sacrificed when tumors reached a volume of 15 mm in diameter and the tumors harvested and weighed.
The SM1 mammary carcinoma model (FIG. 6B) is initially less aggressive as a primary tumor, and deaths appear to be through mechanisms other than metastatic disease. By day 30 of treatment, SM1 tumors reached a mean volume approximately 33% smaller than either TS/A or 4T1. This indicated a heightened sensitivity of the SM1 tumor to Nani-P2 immunotherapy as compared to 4T1, such that tumor growth was suppressed in 100% of animals for 16 days, and 40% of animals remained in remission even at 28 days following implant and fully one week after termination of the regimen.

TS/A breast cancer cells = test: TS/A breast carcinoma model, primary tumor growth; assay type: in vivo, mouse
Procedure: BALB/c mice were injected (SC) with 1×10^4 4 T1, 1×10^5 TS/A or 2×10^5 SM1 cells, respectively, in the left mammary pad on day 0. Immunotherapy was performed by directly injecting a Tat derivative into the right flank at 0, 7, 12, and 17 days after establishment of tumors. The control group received PBS injection. […] Tumor burden (tumor volume) was measured and recorded three times weekly. Animals were sacrificed when tumors reached a volume of 15 mm in diameter and the tumors harvested and weighed.
The 4T1 murine mammary tumor model was chosen for study because it is an aggressive and rapidly invasive tumor; it is routinely metastatic at fourteen days post-implant by which time it is difficult to treat. To learn whether the efficacy of Nani-P2 could extend to other murine breast tumor models, two additional mammary tumors, TS/A and SM1 were studied (FIG. 6). TS/A primary mammary tumors were approximately as aggressive as 4T1, reaching a tumor volume of 15 mm at 30 days (FIG. 6A). However, the TS/A tumors were considerably more responsive to Nani-P2 treatment, with an approximate 50% suppression of growth after treatment with 0.4 ng Nani-P2, and a 40% total remission rate at 30 days.

4T1 lung metastases = test: Detection of 4T1 lung metastases; assay type: in vivo, mouse
From the text: Lungs were examined for 4T1 metastases as previously described (Pulaski B. et al. Cancer Res. 60:2710-2715, 2000). Primary 4T1 tumors that have been established for 2-3 weeks in BALB/c mice metastasize to the lungs in a very large majority of animals. Briefly, mice were sacrificed according to IACUC guidelines established at the start of the trials, the lungs were removed, and tumor nodules on the surface of the lungs were enumerated with the naked eye by two independent investigators blinded to the treatment protocols.
To further investigate the efficacy of Nani-P2 against established and metastatic breast cancer, 4T1 cells were injected SC in the abdominal mammary gland of mice and treatment was delayed until such time that the tumors had metastasized to the lungs and averaged 3.5 mm in size (FIG. 8A, day 13), corresponding to a 2.4 cm or stage T2 human breast tumor. Mice were followed for tumor growth (FIG. 8A) and lung metastases (FIG. 8B). […] This corresponded to a less aggressive appearance of primary tumor, as well as lung metastases that were on average much smaller in size (FIG. 8B).

[2] = tested on: tumor infiltrating CD8+ CTL; test: IHC staining of primary 4T1 breast tumors for CD8; assay type: in vivo, mouse; details: therapy initiated 7 days after inoculation; resected Day 29/30; listed as PIN-2
Procedure: as §1

[3] = Nani-P2 alternating with cyclophosphamide

B1: Nani-P2: Tat derivative polypeptide SEQ ID NO:3; TF SIVagmVer, cysteine-rich HIV-1, C-terminal SIVagmVer (protein)
chain: MDPKGEEDQDVSHQDLIKQYRKPRTACNNCYCKKCCFHCYACFLRKGLGITYHAFRTRRKKIASADRIPVPQQSISIRGRDSQTTQESQKKVEEQAKANLRISRKNLGDETRGPVGAGN
modifications: Tat derivative polypeptide
notes: TF SIVagmVer, cysteine-rich HIV-1, C-terminal SIVagmVer
mice in partial remission at day 50 (4T1 cells; [3]): 9/10
mice in total remission at day 50 (4T1 cells; [3]): 3/10
survival benefit versus weekly cyclophosphamide (4T1 cells; Nani-P2 bolus treatment alternating with cyclophosphamide, p=0.0001): highly statistically significant
toxicity [1]: no toxicity was observed
PD-L1 expression in primary 4T1 tumors versus controls (PD-L1): reduced
PD-L1 expression in primary 4T1 tumors versus controls (PD-L1; listed as PIN-2): reduced PD-L1 presence near the tumor edge
expression of CD86 (Human monocytes): higher expression of CD86 than either ISS (TLR) or LPS
animals with SM1 tumor growth suppressed for 16 days (SM1 breast cancer cells; 40 ng SC days 0, 7, 14, 21): 100%
difference in SM1 primary tumor growth versus control (SM1 breast cancer cells; 40 ng SC days 0, 7, 14, 21, p<0.01): highly statistically significant
animals remaining in remission at 28 days following implant (SM1 breast cancer cells; 40 ng SC, one week after termination of the regimen): 40%
suppression of TS/A tumor growth (TS/A breast cancer cells; 0.4 ng SC): ~50%
TS/A primary anti-cancer difference versus control, lowest dose (TS/A breast cancer cells; 0.4 ng SC, p<0.01): highly significant
TS/A primary anti-cancer difference versus control, 40 ng (TS/A breast cancer cells; 40 ng SC, p<0.01): highly significant
TS/A total remission rate at 30 days (TS/A breast cancer cells; SC Nani-P2, 30 days): 40%
lung metastases versus controls (4T1 lung metastases; 4T1 model): significantly inhibited the development of spontaneous 4T1 lung metastases; also recorded: dramatic reduction in the visible number of lung metastases
average number of grossly visible tumor nodules in the lungs (4T1 lung metastases; treated IV, treatment delayed to day 13, p<0.01): seven
tumor infiltrating CD8+ CTL versus PBS control [2]: infiltrating CD8+ CTL advancing around tumor edge; also recorded: significant increase in the population of tumor infiltrating CD8+ CTL
